Results from patent US12698507B2, “Methods and compositions for conferring and/or enhancing herbicide tolerance using protoporphyrinogen IX oxidase of various cyanobacteria or variant thereof” (FarmHannong Co., Ltd., priority 2019, dated 2026).

B1: CyPPO19 I408W + F360V: variant of CyPPO19 PPO protein (SEQ ID NO: 1) (protein)
chain: MSEVDVAIVGGGLSGLSLAWRLQQSAPQYSVVLLEASDRLGGNITTQTAEGFVWELGPNSFAPTPALLQLIAEVGLQSELIRGDRHLPRYIYWRGQLYPLQPTRPLALATSNLLSPWGKVRAALGALGFVPPYLGSGDESVNSFFRRHLGQEVAERLVAPFVSGVYAGDPQQLSAAAAFRRIAQLEKLGGGLIAGALHLRRQQAPKPKPPTSVQMRPGELGSFKEGLAALPRAIAQQLKAPIHLQTPVQEITPDPKGGYLLRSGEQTWRARSVVLATPAYQTAELVAPFQPAIARVLATIPYPTVACVVLAYPAGLGRSVRPGFGVLIPRSQGIRTLGTIWSSCLFPQRTPAGWQVFTSVIGGATDPDLASLSEEAIVQQVQQDLNRLLDLPAAKARLLGMKVWRRAWPQYMVGYPEQWQQVTHALSQTPGLFLCSNYAEGVALGDRVEHGNRTAAAVAAYLSGGQP
modifications: Synthetic_PPO of Thermosynechococcus elongatus PKUAC-SCTE542 (comprising GenBank No. CP032152.1)
B2: CyPPO19 R89A + V165S + F360M: variant of CyPPO19 PPO protein (SEQ ID NO: 1) (protein)
chain: MSEVDVAIVGGGLSGLSLAWRLQQSAPQYSVVLLEASDRLGGNITTQTAEGFVWELGPNSFAPTPALLQLIAEVGLQSELIRGDRHLPAYIYWRGQLYPLQPTRPLALATSNLLSPWGKVRAALGALGFVPPYLGSGDESVNSFFRRHLGQEVAERLVAPFVSGSYAGDPQQLSAAAAFRRIAQLEKLGGGLIAGALHLRRQQAPKPKPPTSVQMRPGELGSFKEGLAALPRAIAQQLKAPIHLQTPVQEITPDPKGGYLLRSGEQTWRARSVVLATPAYQTAELVAPFQPAIARVLATIPYPTVACVVLAYPAGLGRSVRPGFGVLIPRSQGIRTLGTIWSSCLFPQRTPAGWQVFTSMIGGATDPDLASLSEEAIVQQVQQDLNRLLDLPAAKARLLGMKVWRRAIPQYMVGYPEQWQQVTHALSQTPGLFLCSNYAEGVALGDRVEHGNRTAAAVAAYLSGGQP
modifications: Synthetic_PPO of Thermosynechococcus elongatus PKUAC-SCTE542 (comprising GenBank No. CP032152.1)
B3: CyPPO19 R89A + V165C + F360I: variant of CyPPO19 PPO protein (SEQ ID NO: 1) (protein)
chain: MSEVDVAIVGGGLSGLSLAWRLQQSAPQYSVVLLEASDRLGGNITTQTAEGFVWELGPNSFAPTPALLQLIAEVGLQSELIRGDRHLPAYIYWRGQLYPLQPTRPLALATSNLLSPWGKVRAALGALGFVPPYLGSGDESVNSFFRRHLGQEVAERLVAPFVSGCYAGDPQQLSAAAAFRRIAQLEKLGGGLIAGALHLRRQQAPKPKPPTSVQMRPGELGSFKEGLAALPRAIAQQLKAPIHLQTPVQEITPDPKGGYLLRSGEQTWRARSVVLATPAYQTAELVAPFQPAIARVLATIPYPTVACVVLAYPAGLGRSVRPGFGVLIPRSQGIRTLGTIWSSCLFPQRTPAGWQVFTSIIGGATDPDLASLSEEAIVQQVQQDLNRLLDLPAAKARLLGMKVWRRAIPQYMVGYPEQWQQVTHALSQTPGLFLCSNYAEGVALGDRVEHGNRTAAAVAAYLSGGQP
modifications: Synthetic_PPO of Thermosynechococcus elongatus PKUAC-SCTE542 (comprising GenBank No. CP032152.1)
B4: CyPPO19 R89A + V165C + F360V: variant of CyPPO19 PPO protein (SEQ ID NO: 1) (protein)
chain: MSEVDVAIVGGGLSGLSLAWRLQQSAPQYSVVLLEASDRLGGNITTQTAEGFVWELGPNSFAPTPALLQLIAEVGLQSELIRGDRHLPAYIYWRGQLYPLQPTRPLALATSNLLSPWGKVRAALGALGFVPPYLGSGDESVNSFFRRHLGQEVAERLVAPFVSGCYAGDPQQLSAAAAFRRIAQLEKLGGGLIAGALHLRRQQAPKPKPPTSVQMRPGELGSFKEGLAALPRAIAQQLKAPIHLQTPVQEITPDPKGGYLLRSGEQTWRARSVVLATPAYQTAELVAPFQPAIARVLATIPYPTVACVVLAYPAGLGRSVRPGFGVLIPRSQGIRTLGTIWSSCLFPQRTPAGWQVFTSVIGGATDPDLASLSEEAIVQQVQQDLNRLLDLPAAKARLLGMKVWRRAIPQYMVGYPEQWQQVTHALSQTPGLFLCSNYAEGVALGDRVEHGNRTAAAVAAYLSGGQP
modifications: Synthetic_PPO of Thermosynechococcus elongatus PKUAC-SCTE542 (comprising GenBank No. CP032152.1)
B5: CyPPO19 I408W + F360T: variant of CyPPO19 PPO protein (SEQ ID NO: 1) (protein)
chain: MSEVDVAIVGGGLSGLSLAWRLQQSAPQYSVVLLEASDRLGGNITTQTAEGFVWELGPNSFAPTPALLQLIAEVGLQSELIRGDRHLPRYIYWRGQLYPLQPTRPLALATSNLLSPWGKVRAALGALGFVPPYLGSGDESVNSFFRRHLGQEVAERLVAPFVSGVYAGDPQQLSAAAAFRRIAQLEKLGGGLIAGALHLRRQQAPKPKPPTSVQMRPGELGSFKEGLAALPRAIAQQLKAPIHLQTPVQEITPDPKGGYLLRSGEQTWRARSVVLATPAYQTAELVAPFQPAIARVLATIPYPTVACVVLAYPAGLGRSVRPGFGVLIPRSQGIRTLGTIWSSCLFPQRTPAGWQVFTSTIGGATDPDLASLSEEAIVQQVQQDLNRLLDLPAAKARLLGMKVWRRAWPQYMVGYPEQWQQVTHALSQTPGLFLCSNYAEGVALGDRVEHGNRTAAAVAAYLSGGQP
modifications: Synthetic_PPO of Thermosynechococcus elongatus PKUAC-SCTE542 (comprising GenBank No. CP032152.1)
B6: CyPPO19 I408R + F360L: variant of CyPPO19 PPO protein (SEQ ID NO: 1) (protein)
chain: MSEVDVAIVGGGLSGLSLAWRLQQSAPQYSVVLLEASDRLGGNITTQTAEGFVWELGPNSFAPTPALLQLIAEVGLQSELIRGDRHLPRYIYWRGQLYPLQPTRPLALATSNLLSPWGKVRAALGALGFVPPYLGSGDESVNSFFRRHLGQEVAERLVAPFVSGVYAGDPQQLSAAAAFRRIAQLEKLGGGLIAGALHLRRQQAPKPKPPTSVQMRPGELGSFKEGLAALPRAIAQQLKAPIHLQTPVQEITPDPKGGYLLRSGEQTWRARSVVLATPAYQTAELVAPFQPAIARVLATIPYPTVACVVLAYPAGLGRSVRPGFGVLIPRSQGIRTLGTIWSSCLFPQRTPAGWQVFTSLIGGATDPDLASLSEEAIVQQVQQDLNRLLDLPAAKARLLGMKVWRRARPQYMVGYPEQWQQVTHALSQTPGLFLCSNYAEGVALGDRVEHGNRTAAAVAAYLSGGQP
modifications: Synthetic_PPO of Thermosynechococcus elongatus PKUAC-SCTE542 (comprising GenBank No. CP032152.1)

What follows are molecules tested on PPO-deficient BT3 E. coli (ΔPPO) (assay: PPO-inhibiting herbicide tolerance test of PPO variants in E. coli (growth on herbicide-containing LB agar)). Conditions: CyPPO19 variants in BT3 (ΔPPO) E. coli; LB agar with 0 to 2,000 μM herbicide, 37° C., dark, 16-20 hours.
Format: cell-based
Outline: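 Transformants were grown to OD600 0.5–1, adjusted to OD600=0.5 and spotted as 10-fold dilutions on LB agar with ampicillin (100 μg/mL) and 0 to 2,000 μM herbicide. Plates were kept at 37° C in the dark for 16-20 hours; growth was scored relative to wild type, one '+' per 10-fold resistance.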

**Q.** Which “tolerance level relative to wild type, Carfentrazone” value does the source give for B1 here?
**A.** + (‘+’ per each 10-fold resistance)

**Q.** What about the “tolerance level relative to wild type, Flumioxazin” value of the same molecule?
**A.** ++++ (‘+’ per each 10-fold resistance)

**Q.** And the “tolerance level relative to wild type, Fomesafen” value?
**A.** +++ (‘+’ per each 10-fold resistance)

**Q.** And the “tolerance level relative to wild type, Oxyfluorfen” value?
**A.** ++ (‘+’ per each 10-fold resistance)

**Q.** And the “tolerance level relative to wild type, Saflufenacil” value?
**A.** +++ (‘+’ per each 10-fold resistance)

**Q.** And the “tolerance level relative to wild type, Sulfentrazone” value?
**A.** +++ (‘+’ per each 10-fold resistance)

**Q.** What about the “tolerance level relative to wild type, Tiafenacil” value of the same molecule?
**A.** ++++ (‘+’ per each 10-fold resistance)

**Q.** How did the “tolerance level relative to wild type, Carfentrazone” value turn out when B2 was run?
**A.** + (‘+’ per each 10-fold resistance)

**Q.** What about the “tolerance level relative to wild type, Flumioxazin” value of the same molecule?
**A.** ++++ (‘+’ per each 10-fold resistance)

**Q.** What about the “tolerance level relative to wild type, Fomesafen” value of the same molecule?
**A.** +++ (‘+’ per each 10-fold resistance)

**Q.** And the “tolerance level relative to wild type, Oxyfluorfen” value?
**A.** +++ (‘+’ per each 10-fold resistance)

**Q.** And the “tolerance level relative to wild type, Saflufenacil” value?
**A.** ++++ (‘+’ per each 10-fold resistance)

**Q.** What about the “tolerance level relative to wild type, Sulfentrazone” value of the same molecule?
**A.** +++ (‘+’ per each 10-fold resistance)

**Q.** What about the “tolerance level relative to wild type, Tiafenacil” value of the same molecule?
**A.** ++++ (‘+’ per each 10-fold resistance)

**Q.** B3 was tested. Which “tolerance level relative to wild type, Carfentrazone” value did it give?
**A.** + (‘+’ per each 10-fold resistance)

**Q.** What about the “tolerance level relative to wild type, Flumioxazin” value of the same molecule?
**A.** ++++ (‘+’ per each 10-fold resistance)

**Q.** And the “tolerance level relative to wild type, Fomesafen” value?
**A.** ++ (‘+’ per each 10-fold resistance)

**Q.** And the “tolerance level relative to wild type, Oxyfluorfen” value?
**A.** ++ (‘+’ per each 10-fold resistance)

**Q.** And the “tolerance level relative to wild type, Saflufenacil” value?
**A.** ++++ (‘+’ per each 10-fold resistance)

**Q.** And the “tolerance level relative to wild type, Sulfentrazone” value?
**A.** +++ (‘+’ per each 10-fold resistance)

**Q.** What about the “tolerance level relative to wild type, Tiafenacil” value of the same molecule?
**A.** ++++ (‘+’ per each 10-fold resistance)

**Q.** B4 was tested. Which “tolerance level relative to wild type, Carfentrazone” value did it give?
**A.** + (‘+’ per each 10-fold resistance)

**Q.** And the “tolerance level relative to wild type, Flumioxazin” value?
**A.** ++++ (‘+’ per each 10-fold resistance)

**Q.** And the “tolerance level relative to wild type, Fomesafen” value?
**A.** + (‘+’ per each 10-fold resistance)

**Q.** And the “tolerance level relative to wild type, Oxyfluorfen” value?
**A.** + (‘+’ per each 10-fold resistance)

**Q.** And the “tolerance level relative to wild type, Saflufenacil” value?
**A.** ++++ (‘+’ per each 10-fold resistance)

**Q.** What about the “tolerance level relative to wild type, Sulfentrazone” value of the same molecule?
**A.** +++ (‘+’ per each 10-fold resistance)

**Q.** And the “tolerance level relative to wild type, Tiafenacil” value?
**A.** ++++ (‘+’ per each 10-fold resistance)

**Q.** Which results are given for B5?
**A.** tolerance level relative to wild type, Carfentrazone: + (‘+’ per each 10-fold resistance); tolerance level relative to wild type, Flumioxazin: + (‘+’ per each 10-fold resistance); tolerance level relative to wild type, Fomesafen: + (‘+’ per each 10-fold resistance); tolerance level relative to wild type, Oxyfluorfen: + (‘+’ per each 10-fold resistance); tolerance level relative to wild type, Saflufenacil: ++ (‘+’ per each 10-fold resistance); tolerance level relative to wild type, Sulfentrazone: + (‘+’ per each 10-fold resistance); tolerance level relative to wild type, Tiafenacil: ++ (‘+’ per each 10-fold resistance)

**Q.** Which “tolerance level relative to wild type, Carfentrazone” value does the source give for B6 here?
**A.** + (‘+’ per each 10-fold resistance)

**Q.** And the “tolerance level relative to wild type, Flumioxazin” value?
**A.** + (‘+’ per each 10-fold resistance)

**Q.** What about the “tolerance level relative to wild type, Fomesafen” value of the same molecule?
**A.** + (‘+’ per each 10-fold resistance)

**Q.** What about the “tolerance level relative to wild type, Oxyfluorfen” value of the same molecule?
**A.** + (‘+’ per each 10-fold resistance)

**Q.** What about the “tolerance level relative to wild type, Saflufenacil” value of the same molecule?
**A.** + (‘+’ per each 10-fold resistance)

**Q.** And the “tolerance level relative to wild type, Sulfentrazone” value?
**A.** + (‘+’ per each 10-fold resistance)

**Q.** What about the “tolerance level relative to wild type, Tiafenacil” value of the same molecule?
**A.** ++ (‘+’ per each 10-fold resistance)
